Test results taken from PMC8145704, “Conformational Plasticity of Hepatitis B Core Protein Spikes Promotes Peptide Binding Independent of the Secretion Phenotype” (Microorganisms, 2021).

How the values were obtained:
Assay in all cases: negative-staining electron microscopy
[1] = target: P5T-HBc capsids (Hepatitis B virus (genotype D; strain ayw)) (UniProt P03146)
[2] = target: L60V-HBc capsids (Hepatitis B virus (genotype D; strain ayw)) (UniProt P03146)
[3] = target: F97L-HBc capsids (Hepatitis B virus (genotype D; strain ayw)) (UniProt P03146)

Q: For “P5T-HBc capsids (from UniProt P03146 1-183) (natural protein)”, which stoichiometry N (subunits per capsid) [1] is on record?
A: Its stoichiometry N (subunits per capsid) is 240.

Q: How did the stoichiometry N (subunits per capsid) [2] turn out when “L60V-HBc capsids (from UniProt P03146 1-183) (natural protein)” was run?
A: Its stoichiometry N (subunits per capsid) is 240.

Q: “F97L-HBc capsids (from UniProt P03146 1-183) (natural protein)” was tested. Which stoichiometry N (subunits per capsid) [3] did it give?
A: Its stoichiometry N (subunits per capsid) is 240.
